In the supplement of paper PMC7877785:
± gives the uncertainty stated by the source.

Experiment: self-splicing fitness, log relative to wild type (ln ratio); higher = more splicing; Tetrahymena group I intron in knt gene, E. coli kanamycin selection, DiMSum; sequences stand for … in CUCUCU…GGAGGGAAAAGUUAUCAGGCAUGCACCUGGUAGCUAGUCUUUAAACCAAUAGAUUGCAUCGGUUUAAAAGGCAAGACCGUCAAAUUGCGGGAAAGGGGUCAACAGCCGUUCAGUACCAAGUCUCAGGGGAAACUUUGAGAUGGCCUUGCAAAGGGUAUGGUAAUAAGCUGACGGACAUGGUCCUAACCACGCAGCCAAGUCCUAAGUCAACAGAUCUUCUGUUGAUAUGGAUGCAGUUCACAGACUAAAUGUCGGUCGGGGAAGAUGUAUUCUUCUCAUAAGAUAUAGUCGGACCUCUCCUUAAUGGGAGCUAGCGGAUGAAGUGAUGCAACACUGGAGCCGCUGGGAACUAAUUUGUAUGCGAAAGUAUAUUGAUUAGUUUUGGAGUACUCGUGGUCG
Summary of the method: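 Six replicate transformations of E. coli BL21(DE3) with a pET-22b(+) library were grown overnight at 37°C or 30°C. The library randomised all eight P1ex-region intron nucleotides, the intron lying in the knt kanamycin-resistance gene, and plates were LB agar with or without 25 μg/mL kanamycin plus 100 μg/mL carbenicillin, 50 μM IPTG and 0.2% rhamnose. Pooled colonies were amplicon-sequenced on an Illumina HiSeq 2500, and fitness is the DiMSum error-weighted combination of wild-type-normalised replicate fold changes, kanamycin versus none.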

| Sequence | self-splicing fitness (ln) (37 °C) | self-splicing fitness (ln) (30 °C) |
| --- | --- | --- |
| AAAGAGCAAUAUUACGCGGC | -3.08 ± 0.4 | – |
| GUAGAGCAAUAUUACGGCCA | -0.417 ± 0.17 | -0.643 ± 0.098 |
| AGGGAGCAAUAUUACGAGGA | – | -3.08 ± 0.33 |
| GUUAAGCAAUAUUACGGGUG | -2.39 ± 0.14 | -3.29 ± 0.15 |
| AACUAGCAAUAUUACGGAUC | -1.37 ± 0.12 | -1.78 ± 0.17 |
| AGCAAGCAAUAUUACGUCCA | 0.0058 ± 0.17 | -1.62 ± 0.12 |
| CUCGAGCAAUAUUACGAAUG | -1.15 ± 0.17 | -1.91 ± 0.14 |
| GCCAAGCAAUAUUACGCCCG | -0.836 ± 0.32 | -2.72 ± 0.29 |
| UUCAAGCAAUAUUACGAGUC | -1.93 ± 0.26 | -3.3 ± 0.31 |
| UAUAAGCAAUAUUACGUUGU | -2.55 ± 0.17 | -4.3 ± 0.2 |
| CAUCAGCAAUAUUACGACAC | -3.05 ± 0.37 | -1.78 ± 0.21 |
| AGCCAGCAAUAUUACGAGAG | -3.02 ± 0.21 | -4.55 ± 0.27 |
| UUGAAGCAAUAUUACGGCUC | -1.42 ± 0.19 | -3.8 ± 0.25 |
| UCGUAGCAAUAUUACGCACG | -0.584 ± 0.2 | -1.8 ± 0.23 |
| CCGCAGCAAUAUUACGUUGA | -3.41 ± 0.25 | -3.59 ± 0.16 |
| AUUUAGCAAUAUUACGCCCA | -1.58 ± 0.27 | -1.06 ± 0.26 |
| GAGGAGCAAUAUUACGGCCG | -1.55 ± 0.39 | – |
| CACCAGCAAUAUUACGCGGA | -0.595 ± 0.088 | -2.85 ± 0.15 |
| AUUAAGCAAUAUUACGUUGU | -2.8 ± 0.32 | -1.98 ± 0.21 |
| AAGGAGCAAUAUUACGCUCC | -1.7 ± 0.47 | – |
| UAGAAGCAAUAUUACGUUUU | -2.85 ± 0.18 | -3.58 ± 0.17 |
| GUAUAGCAAUAUUACGGAAU | -2.39 ± 0.21 | -2.27 ± 0.23 |
| ACCCAGCAAUAUUACGAUCU | -0.243 ± 0.084 | -1.34 ± 0.068 |
| AGGCAGCAAUAUUACGUACA | -0.742 ± 0.093 | -0.585 ± 0.071 |
| CGUGAGCAAUAUUACGGUAG | -1.11 ± 0.11 | -1.84 ± 0.11 |

| Sequence | self-splicing fitness (ln) (37 °C) | self-splicing fitness (ln) (30 °C) |
| --- | --- | --- |
| CCCGAGCAAUAUUACGAUAG | -2.02 ± 0.2 | -3.17 ± 0.22 |
| AUCCAGCAAUAUUACGCCGG | -2.36 ± 0.41 | -3.51 ± 0.24 |
| ACGUAGCAAUAUUACGAACU | -0.266 ± 0.082 | -0.677 ± 0.059 |
| UUGUAGCAAUAUUACGUCGA | -0.226 ± 0.11 | -0.938 ± 0.088 |
| AGACAGCAAUAUUACGGGAA | -1.38 ± 0.14 | -2.68 ± 0.18 |
| AUAGAGCAAUAUUACGCGGA | -1.48 ± 0.11 | -1.35 ± 0.092 |
| AAAUAGCAAUAUUACGACUU | 0.387 ± 0.13 | 0.559 ± 0.099 |
| CUUUAGCAAUAUUACGAUAA | -2.64 ± 0.28 | -2.76 ± 0.15 |
| CGGUAGCAAUAUUACGAAAG | -0.493 ± 0.16 | -0.203 ± 0.16 |
| ACUGAGCAAUAUUACGCCCU | -1.05 ± 0.44 | -1.87 ± 0.33 |
| GAUAAGCAAUAUUACGUUAG | -2.27 ± 0.22 | -5.21 ± 0.45 |
| UGCCAGCAAUAUUACGUUAU | -0.982 ± 0.12 | -3.98 ± 0.2 |
| GUGUAGCAAUAUUACGACUC | -0.0849 ± 0.21 | -0.267 ± 0.15 |
| UCCUAGCAAUAUUACGGCAA | -1.95 ± 0.19 | -2.22 ± 0.2 |
| GUUCAGCAAUAUUACGAAUG | 0.0253 ± 0.11 | -0.469 ± 0.076 |
| CCGUAGCAAUAUUACGGUGC | -1.93 ± 0.16 | -2.96 ± 0.16 |
| AUGUAGCAAUAUUACGUUAG | -2.97 ± 0.4 | -1.89 ± 0.22 |
| GGUUAGCAAUAUUACGAUAU | -0.137 ± 0.13 | -0.423 ± 0.1 |
| CAUUAGCAAUAUUACGCAAA | -2.25 ± 0.32 | – |
| AGGCAGCAAUAUUACGGAAA | -2.14 ± 0.24 | -2.91 ± 0.48 |
| AACGAGCAAUAUUACGCUCU | -1.81 ± 0.14 | -5.11 ± 0.41 |
| UGCGAGCAAUAUUACGGGUC | -2.72 ± 0.3 | -4.21 ± 0.27 |
| GGAUAGCAAUAUUACGUGGC | – | -2.56 ± 0.25 |
| UAGGAGCAAUAUUACGCAUU | -2.42 ± 0.42 | -3.91 ± 0.35 |
